From patent US11692029B2, “Therapy for glaucoma and optic neuropathy by targeting colony stimulating factors” (The Schepens Eye Research Institute, Inc., priority 2018, dated 2023)
Entries after “also recorded” stand apart in the source; their conditions may differ.

Legend:
retinal function (pSTR) = assay: positive scotopic threshold response (pSTR) in microbead-induced glaucoma mice; type: in vivo; conditions: MB-induced glaucomatous mice, intravitreal treatment, 4 and 6 weeks after MB injection, versus vehicle
Description: (§1) FIG. 3A is a line graph showing the intraocular pressure (IOP) level at baseline and up to 42 days/6 weeks post-MB injection of mice receiving either intravitreal injections of CSF1R Ab, CSF2, CSF1R Ab+CSF2 or control vehicle at D3 and D7. FIG. 3B is a bar graph showing the ratio of positive scotopic threshold response (pSTR) of glaucoma eye to contralateral normal eye. FIG. 3C is a bar graph showing the contrast sensitivity (CS) of the OMR. FIG. 3D is a bar graph showing Retinal Ganglion Cells (RGC) density of control (Ctr), vehicle (Veh) and CSF1R Ab, CSF2 and CSF2+CSF1 Ab-treated groups. Note Ctr group are the uninjured eyes. FIGS. 3E-3G are photomicrographs of Brn3a+RGCs (red) at 6 week post-injection of microbeads. In these figures (FIGS. 3A-G), ‘#’ and ‘*’ represents statistical analysis comparing to control and vehicle group, respectively. *, ** and *** represent P value <0.05, 0.01 and 0.001, respectively. #, ## and ### represent P value <0.05, <0.01 and <0.001.
(§2) FIG. 7 is a schematic representation showing the experimental design. […]
The function of retinal ganglion cells (RGCs) can be non-invasively assessed in experimental and genetic models of glaucoma by means of variants of the ERG technique that emphasize the activity of inner retina neurons. […]

visual function = visual function (contrast sensitivity and visual acuity) in microbead-induced glaucoma mice; type: in vivo; conditions: MB-induced glaucomatous mice, intravitreal treatment, 4 and 6 weeks after MB injection, versus vehicle
Description: as §1, with “<0.001. […] FIG. 7 is a schematic representation showing the experimental design. It was hypothesized that inhibiting CSF1 by administration of CSF1R antibody (CSF1R Ab) and/or promoting CSF2 signaling protect RGC against glaucomatous damage. Four experimental groups were proposed: following MB-injection to induce high IOP, mice received treatment of vehicle (PBS), CSF1R Ab, CSF2, or CSF1R Ab+CSF2 were studied. […]” for “<0.001.”

microglia = assay: microglial activation in a glaucoma mouse model; type: in vivo, mice; conditions: intravitreal injection
Description: Activation of microglia plays a critical role in the progression of neurodegeneration in glaucoma. Colony stimulating factor 1 (CSF1) and colony stimulating factor 2 (CSF2) are involved in glaucomatous neuron loss by regulating microglia function.

[1] = test system: retinal ganglion cells (RGC); assay: RGC loss (anti-Brn3a RGC counts, whole-mount retina) in microbead-induced glaucoma mice; type: in vivo; conditions: MB-injected high-IOP mice, intravitreal treatment, versus vehicle/saline-treated mice
Description: as §1, §2
Microbeads (MB) were injected into the anterior chamber of adult B6 mice to induce high IOP. The expression of CSF1/2 and their receptors was examined by immunostaining and quantitative polymerase chain reaction (qPCR) at different time points after MB injection. […]

[2] = listed as CSF2 recombinant protein

B1: CSF2: Granulocyte-macrophage colony-stimulating factor recombinant protein; exemplary source Peprotech Recombinant Murine GM-CSF, Cat #: 315-03 (protein, UniProt P01587 18-141, looked up)
Granulocyte-macrophage …: APTRSPITVTRPWKHVEAIKEALNLLDDMPVTLNEEVEVVSNEFSFKKLTCVQTRLKIFEQGLRGNFTKLKGALNMTASYYQTYCPPTPETDCETQVTTYADFIDSLKTFLTDIPFECKKPGQK
pSTR amplitude (retinal function (pSTR)): pSTR increased | visual function (vision contrast sensitivity and visual acuity) (visual function): visual function increased | visual function (vision contrast sensitivity and visual acuity) (visual function; [2]): protected the loss of retinal ganglion cells (RGCs) and vision function | microglial activation (microglia): significantly suppressed microglial activation | RGC loss [1]: decreased RGC loss; also recorded: reduced or attenuated glaucomatous RGC loss | RGC loss [1, 2]: protected the loss of retinal ganglion cells (RGCs)
